Results: the DeepSol protein solubility set

Experiment: soluble on expression in E. coli; label from the status in PepcDB or PDB records

| Sequence | soluble on expression in E. coli |
| --- | --- |
| MTDYDDYEDRSGVVEEELLDFDRAMLDFQAMFPSLSNSHIEYVLRKYDGDVSATINELLYDNTPTTTTSESIPHGGDLTKLRQRRHEINEKLRENQKFLDTVTDVEIARAYEDQQLALLLEHREVNTLISEEKKKKSCSDSSSIQESRRHVKIPGKNSKNSKISVNKAKKLEPRRRSDEDRVPDGPYIGEGEVKSENFAAKIKETLRKASGSRISRLFSAP | not soluble |
| MAHHHHHHMRPLASFRGNTQTMLYTPVQDKYSILMEDDKLRVGASSMQGWRSTMEDAHTIHLSLPGLPSHMASEDGAIAAVFDGHCGSKTSQTSAIRILEWITSMEAFGEGNMEKAIRDGFIAGDLAMQRSSPNEMSGCTGNCVLIVENHLYCGNVGDSRAVLCRDGTAIPLSEDHKPNLPRERERVLRAGGYIHNGRVNGVLSLSRALGDFAFKDSDLPPEAQAVTAIPDVVHLELTPQDEFVIIACDGVWDMVTNEKAVEIVRSEVADHSDLSLACERLMDACLSKVSTGAGTDNMTVIILQFKSFFLKKVESRFGAISCNAAE | not soluble |
| MQGQKIPATVITGFLGSGKTTMIRNLLENANGKRIALIINEFGDLGVDGGILKRCGIETCREEDVIELNNGCICCTVADDFIPTMTKLLDREDRPDHIVIETSGLALPQPLVAAFNWPEIKTQVTVDGVVTVIDAAAVAEGRFADDHDKVDAQRAADESLDHESPLEELFEDQIHAADLIVLNKADLIDAAKLDSVKADVAERSSRRVNMVPASFGKLGADVLLGLGVGTEDDIVNRRSHHEAHHGDGHEHDHDEFESFVVEAGSVADPKAFAEKLKAVIAEHDILRLKGFVDVPGKPMRLVVQAVGPRIEHYFDRPWGKDETRSTRLVVIGLHDIDEAAIAQAVKDADLEHHHHHH | not soluble |
| MSEVKYKRVILKLSGEALAGEKGFGINPPVIKTVAEELKDVYDMGVQIAIVVGGGNMWRGEAGAQMGMERAQADYIGMLATIMNALALQDNLESIGVPTRVQTSIEMRQIAEPYIRRKAMRHLEKRRIVIFAGGTGSPYFSTDTTAALRAAEINADAILMAKNGVDGVYSADPNKDASAVKFDTLTHLDIINKGLQVMDTTASSLSMDNDIPVVVFNLNEPGNIRKVVAGEHIGTTVRGKLEHHHHHH | soluble |
| MAITIQNHELQVTLKALGATMTSITDSQGVEYLWQGDATYWGGQAPILFPICGSVRNDCVIYRPAQAPHFTGIIPRHGFVRHKTFDYDYISDSSVRFTIKSSKEMLINYPYRFSLEITYTLRNKSIAITYIVKNLESEKNMPYAIGAHPGFNCPLFEKEVFSDYYLEFEQFETCTIPESFPDTGLLDLQARHPFLENQKQLSLNHALFEKDAITLDQLRSKTVYLKSRNHAKGIQLDFDDFENLILWTSNNGGPFLALEPWSSLSTSIEESDILEDKQNIVRLNPKQSKQHSIRITILLEHHHHHH | soluble |
| MVVRVDETTAPLFRQIAALIEDSIVEGSLSSGERAPSTNELAAFHSINPATARKGLQLLVDAGVLEKKRGLGMFVTDNAVELIRGRRRDDFAAAYLAPLVDEAVKLTISKTELHNLIDRVAESRGLYE | soluble |
| MPSADVLIIGSGIAALRVAKEICHEKNVIIITKETNRNNNTHLAQGGIAAAVATYDNPNDHFEDTLVAGCRYNNEDVVRYLVEEGPKEMKNLIENGMQFDGDETGPHLGKEGAHRKRRILHAGGDATGKNLLEHFIQEVVPHVTVVEQEMVLDFIIESEKCVGVLTRNSEGKLKRYDADYTVLASGGVGGLYAFTSNDKTITGDGLAMVYRAGGELVDLEFVQFHPTMLYAGGQCCGLVSEAVRGEGAVLINGKGQRFMMDIHDDYDLAPRDVVARAIHEQLLSGEKVYLNIGSIQNFQERFPTVSALCKKNGVDITKKRIPVVPGAHFHMGGVKTNIDGETSIPNLYAVGEVACNGVHGANRLASNSLLEGLVFGKRIGQHILTKATKDKLNDFAEKEKKFIVLNHLPTKEEIQECMMKYVGIVRTEQSLSYAKRWLSKYGVRNMILQHDALTNEEITLINMLTVCELIVVSALQREESIGGHYRSDYPHRNSAQKEIIRVKRKLQLV | not soluble |
| MSLKKISFIINGQVEIFPESDDLVQSINFGDNSVYLPILNNSHVKNIIDYNENNKLRLHNIVNFLYTVGQRWKNEEYSRRRTYIRDLKKYMGYSEAMAKLEANWISMILCSKGGLYDVVENELGSRHIMDEWLPQDESYIKAFPKGKSIHLLAGNVPLSGIMSILRAILTKNQCIIKTSSTDPFTANALALSFIDVDPNHPITRSLSVVYWPHQGDTSLAKEIMQHMDVIVAWGGEDAINWAVEHAPPYADVIKFGSKKSFCIIDNPVDLTSAATGAAHDICFYDQRACFSAQNIYYMGNQYEEFKLALIEKLNLYAHILPNAKKDFDEKAAYSLVQKESLFAGLKVEVDVHQRWMIIESNAGVEFNQPLGRCVYLHHVDNIEQVLPYVQKNKTQTISIFPWESAFKYRDALALRGAERIVEAGMNNIFRVGGSHDGMRPLQRLVTYISHERPSHYTAKDVAVEIEQTREGHHHHHH | soluble |
| MTPLKRYQKDIAEHGFQRDEAQHQAVVALDKLYHDIVEFQSAPIPQLSKWQKLMGKKVEMPQPPKGLYFWGGVGRGKTYLMDAFFDALPTDRKMRVHFHRFMYRVHDELKRLGEVENPLSKVADLFKQEADIVCFDEFFVSDITDAMILATLLQEMFKRQMVLVATSNIEPQNLYRNGLQRARFLPAIDMILARCHVLNVDSGVDYRLRTLEQAEIYHYPLDEQASINLNTYYQQLTAERKSVAHKIDINHRQISVIEASDGVLHASFEQLCQTARSQNDYIELSRIYHTVLLADVRQMNRKIDDAARRFIALVDEFYERNVKLIISAEVEMDALYSEGQLEFEFKRCVSRLTEMQSHEYLAREHLALEHHHHHH | soluble |
| MSLIYHRIAVNVPLSDGLLTYSHSDPLPPGTRVLVPFRNKTVVGMVWETDIAPDMDMARILSVQTAFVEEKPLPESWRDLLAFTSRYYHYPTGQAVFAALPQGLKETRAVEMPQPPLFYALNEAGRAQTPPPARFNKKAALWDALLSGGMTMAALKQVNAQAAKLIEDWAEQGWIETTEAAKPVLRSYHGQASHSEFVLNADQQQASDEIQTAFGSFQPFLLYGITGSGKTEVYFDAMAKVLAQGRQVLFLLPEINLTPQLLKRVENRFADVPTAVLHSQMAAGKRTQDYLRAMLGQAKLVIGTRLAVFTPMDDVGLIVVDEEHDGSFKQDNELRYHARDLAVWRAKQGGCPIILGSATPSLESWHKAQSGAYRLLQLTERAHTAAQLPQVDILNVGRLKLDNGFSPQALQLLKQNFEAGGMSLVYLNRRGFAPALFCGDCGYTFGCPNCSAKMVLHQRARQLRCHHCDHREPIPYKCPDCGNQDLTAVGHGTQRVEETLRTFLPKAAVVRVDRDSTAHKNDWADLYRRIADNKIDILVGTQMLAKGHDFARLNLVIVLNADGSLYSADFRAPERLFAELMQVSGRAGRADKPGKVLIQTQLPEHPVFAAVKAQDYAVFAENELNERQMFAMPPFGFQTAVRADAPRVADAMEFLNAAKETLAPLLPESVSQFGAAPMLMVRLAERERAQIFLESPSRQDLHRAVSLWAQVLQQNRDGKIRWSVDVDPQEAEGHHHHHH | not soluble |
| MISRPESSLSGLESSQEVQKKTWNPRNYSARLTENIGLPLILLEKHNPWPAYVAYISPAVTRITEKGWARDLEYIYAAEKNGKPVKRSKHSAVLLKRRKPSKPSELMLKETLSETMLPTWECSTIYVSPTFVPEPAQLQMDVREGPTSNYNKIIFSKRPAMRKLPFGLLQASKEMHTKD | soluble |
| MKNIFGNKNTKRSKNKDGKALASTASKDVADPPKQGGTKGSKKPKPSRGNDEKGREPETSAQSKKAKKGKPKRDSKAATPALSPGSREMLSDHKKQTVEDDPPLPIATSVAGTVTTTGMPALLPAENATQPLKEVVNSGKKSKGAPNSATATPVSHKSTITEGADKWVGEDVAKNWMDSIDLAEVKKEFEKLQSMKVDVEKECKTWKANSKYNQSEDFPALDSNLLKVEKDYVNISRVEIPLGRNIYIGQVPVKDTEETFWKAVFDKRIVSIDVIVGDEPIEFFPKKAEDYKNYGQMWINNRKVEYVSDDVFRFSIEVLPHGCSNSIICNVTVISNWKVDSVPVKQAIAIKEAFGLNSYLLKAPADDNAMINSQHGAGRAGYFLALAVAVHTIDTKVAEPCIVDIVKSIRSQRPRAVDSFCQYCSLYISLLYFIKKKVTKPAEGDKKSTPTNKYLHKKSVEMTKQFTNILLEANQPSVMGPQ | not soluble |
| RPSSVVIGTASQGGVYYIYGGGLAQLLDRELGVSSNVEVTGGPVHNMQLVNEQEQDIGMITMGPGYEGVLGEGEWTGGETYDNVRVIFPMYTTPFHWWSLESSGVTSIEDMDGMRVGVGPSGGTSGTYLPIIHEVLGLDITPVLAGANDMVSQQLDGQLDVIGFAAGLPIPAVAEVEAQRDIHLFGIDGENRDKVLEALPYFEPYTIPADTYDQLDEDLETIAMFNFGITYSEMNADFVYELVKAYHENNDLLMTTHSSAEEAVPEAILRNEVVPLHVGAIRYYEEIGIDLPESVYPAEWENE | not soluble |
| MGSDKIHHHHHHMTWQVERIANEHLTLEVLPQIGASVLNLRAASGRPVLRPVNPAAVQTSSQCASFTLLPYSNRIRDARFSFQGREVLLRPTTKDGLAQHGDVRNRPWQVTRVADTHLRGDFDSRAFNDMNWPWAFTARVEYLLHGPHLDTSVTLTNVDTDEMPAGMGLHPYFTRRHGGRDPFLSFGAALTYDTDERQLPTGGPRTLHPEEDYQMPSSIGDRQLDRVYTAWDGRARLDWGERALTLTADAVYSHLVVFTAPDGSLALEPVTHATDAFNLAARGVSGTDMRTLLPGQSLAGTVRITLEGAW | not soluble |
| MPALKKIEQSLDHLFQIEKYGKDSAFSRFIPAVYDPIKFPWQQFFEANFVDLFNGLMMHGSENVNKVFLAVFPTDDVLETFISQSTPGDLLFMHHPLVMECGDPLGRSGRGFLPIPEKYLQGIKEKQLSIYTCHVPMDFHQTHGTSISIAKALNATVVDDFAYGGPEQEPVGLICEIDETSTEALQKHLKQLFQIPYTDFEGKRHDSIKKIAIIAGCGDVVSLMKEAEEKGAEAYITGEIHCHIDNDYGRHKYSLIMDYVKETNMSLIGVSHSASEYLVKETLMYDWFKENFDVDVILLPQEKWWLMAGDPLEHHHHHH | not soluble |
| MGSDKIHHHHHHMKVKPFSLSIPFNTEPPSDWKDAWDVQLYVKVEDEKDYGWGEALVAGSGIINSYLSIINDIAIPLLSRVELSEPIDVRTILEKILFSAGNCGVVSGAISAVEMALWSLKARKSNVELYKLIGDKIRDSVKVYASFPRFGKIDDVLIATRKSLERGFDLVKLHQSPSTVLAAVKAIRENYKEVKIAIDLNSPFDNLDVAKEFVDKVHKYEIEWIEEPLWPPNDYDLLSKLTEFSPIPIAAGENEYSLYGFKKLIESGITYLQPDIAKVGGVTKFLEILDLASKYKVRVLPHDRPDASPISLIYTLNIGLVKSQIEMVEYTIADFPNDLFYSLPKFKDGYISPPENLEVVERNIEKYSYKNRLRILHFSDLENKLMRKIT | not soluble |
| LLLNLFNFRNFKDLFRNDINMMTVEEILYNEIKEFQASDRRAWMVIGDRYYRCENDILNRRIVRHTESGDIEDRSKANNRLAHGFVKNLVDEKIGYLLTKDYSLKCDNKEYIEKVKNVLGKYFQYTLTRLGYEASNKGIAWLQVYINEQGKFGMMIIPAEQCVPLWKDNTHTELYGMIRYYVQTVYEGKEKKQITRVEYYTDKEVYFYVLDNDHLIPDIEQYEGGPILHYKKGEEGRSWGKVPFIAWKNNHLEYPDVKFIKSLVDAYDKSRSEIDNFIEETKNLIYVLKGYGGENLSDFMKDLNYYRAIKIDDPEHGGVDTLTPKIDIQAAKEHFEQLKRDINEFGQGVPKDLDKYGNSPSGTALKFLYSGLDLKCNHLEVEFRQSFNQLLYFVNRYLAENGQGNYENENVELIFNRDIQINETETINNCVNSKGIISDETILANHPWVSDVEEELKQIEKERKSEEPPMFGEGDEE | soluble |
